Experimental data reported in patent US20130108636A1.

Target: gp120s
Test: binding assay, method not stated

B1: m36d1 (VHH)
chain: QVQLVQSGGGLVQPGGSLRLSCAASAFDFSDYEMSWVRQAPGKGLEWIGEINDSGNTIYNPSLKSRVTISRDNSKNTLYLQMNTLRAEDTAIYYCAIYGGNSGGEYWGQGTLVTVSSGGGGSGGGGSGGGGSQVQLVQSGGGLVQPGGSLRLSCAASAFDFSDYEMSWVRQAPGKGLEWIGEINDSGNTIYNPSLKSRVTISRDNSKNTLYLQMNTLRAEDTAIYYCAIYGGNSGGEYWGQGTLVTVSS
  fold decrease in binding compared to m36: 16 fold
